Laboratory results: patent US20060257938A1, “Method of screening for drugs that block ligand binding to a lipid binding protein” (priority 2005, published 2006)
Where “and” joins values, the source holds several entries; their conditions need not be identical. Equal entries are not always repeated.

Tests used:
Assay type in all cases: binding
Conditions in all cases: response relative to ADIFAB2
[1] = Probe fluorescence ratio response to arachidonic acid relative to ADIFAB2
Method in brief: (§1)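 Fluorescently labeled rat intestinal FABP variants were read at two emission wavelengths, near the unbound maximum (about 420 to 480 nm) and the FFA-bound maximum (about 495 to 580 nm). R = Fλ1/Fλ2 after subtracting probe-free intensity; ΔR = R+agent − R0, normalized to ADIFAB2 (rI-FABP-L72A).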

[2] = Probe fluorescence ratio response to linolenic acid relative to ADIFAB2
Method in brief: as §1

[3] = Probe fluorescence ratio response to linoleic acid relative to ADIFAB2
Method in brief: as §1

[4] = Probe fluorescence ratio response to oleic acid relative to ADIFAB2
Method in brief: as §1

[5] = Probe fluorescence ratio response to palmitic acid relative to ADIFAB2
Method in brief: as §1

Molecule	DR/DR AA ([1]; Arachidonic acid)	DR/DR LNA [2]	DR/DR LA [3]	DR/DR OA [4]	DR/DR PA [5]	DR/DR AA ([1]; arachidonic acid)
62H, 72A (protein, listed as Rattus norvegicus, PEPTIDE (1)...(131) wild-type rat intestinal fatty acid binding protein) AFDGTWKVDRNENYEKFMEKMGINVVKRKLGAHDNLKLTITQEGNKFTVKESSNFRNIDVVHELGVDFAYSAADGTELTGTWTMEGNKLVGKFKRVDNGKELIAVREISGNELIQTYTYEGVEAKRIFKKE	1.42	1.44	1.40	1.40	1.24	
62I, 72A (protein, listed as Rattus norvegicus, PEPTIDE (1)...(131) wild-type rat intestinal fatty acid binding protein) AFDGTWKVDRNENYEKFMEKMGINVVKRKLGAHDNLKLTITQEGNKFTVKESSNFRNIDVVIELGVDFAYSAADGTELTGTWTMEGNKLVGKFKRVDNGKELIAVREISGNELIQTYTYEGVEAKRIFKKE	1.40	1.38	1.36	1.37	1.27	
68A, 72A (protein, listed as Rattus norvegicus, PEPTIDE (1)...(131) wild-type rat intestinal fatty acid binding protein) AFDGTWKVDRNENYEKFMEKMGINVVKRKLGAHDNLKLTITQEGNKFTVKESSNFRNIDVVFELGVDAAYSAADGTELTGTWTMEGNKLVGKFKRVDNGKELIAVREISGNELIQTYTYEGVEAKRIFKKE	0.23	0.19	0.18	0.19	0.13	
68D, 72A (protein, listed as Rattus norvegicus, PEPTIDE (1)...(131) wild-type rat intestinal fatty acid binding protein) AFDGTWKVDRNENYEKFMEKMGINVVKRKLGAHDNLKLTITQEGNKFTVKESSNFRNIDVVFELGVDDAYSAADGTELTGTWTMEGNKLVGKFKRVDNGKELIAVREISGNELIQTYTYEGVEAKRIFKKE	1.24	1.23	1.23	1.13	0.52	
68Q, 72A (protein, listed as Rattus norvegicus, PEPTIDE (1)...(131) wild-type rat intestinal fatty acid binding protein) AFDGTWKVDRNENYEKFMEKMGINVVKRKLGAHDNLKLTITQEGNKFTVKESSNFRNIDVVFELGVDQAYSAADGTELTGTWTMEGNKLVGKFKRVDNGKELIAVREISGNELIQTYTYEGVEAKRIFKKE	0.47	0.38	0.43	0.45	0.28	
68E, 72A (protein, listed as Rattus norvegicus, PEPTIDE (1)...(131) wild-type rat intestinal fatty acid binding protein) AFDGTWKVDRNENYEKFMEKMGINVVKRKLGAHDNLKLTITQEGNKFTVKESSNFRNIDVVFELGVDEAYSAADGTELTGTWTMEGNKLVGKFKRVDNGKELIAVREISGNELIQTYTYEGVEAKRIFKKE	0.89	0.92	0.96	0.91	0.53	
102Y, 72A (protein, listed as Rattus norvegicus, PEPTIDE (1)...(131) wild-type rat intestinal fatty acid binding protein) AFDGTWKVDRNENYEKFMEKMGINVVKRKLGAHDNLKLTITQEGNKFTVKESSNFRNIDVVFELGVDFAYSAADGTELTGTWTMEGNKLVGKFKRVDNGKEYIAVREISGNELIQTYTYEGVEAKRIFKKE		0.73 and 0.732	0.82 and 0.818	0.86	0.39 and 0.387	0.72 and 0.718
68C, 72A (protein, listed as Rattus norvegicus, PEPTIDE (1)...(131) wild-type rat intestinal fatty acid binding protein) AFDGTWKVDRNENYEKFMEKMGINVVKRKLGAHDNLKLTITQEGNKFTVKESSNFRNIDVVFELGVDCAYSAADGTELTGTWTMEGNKLVGKFKRVDNGKELIAVREISGNELIQTYTYEGVEAKRIFKKE	0.18	0.25	0.12	0.29	0.13	
68N, 72A (protein, listed as Rattus norvegicus, PEPTIDE (1)...(131) wild-type rat intestinal fatty acid binding protein) AFDGTWKVDRNENYEKFMEKMGINVVKRKLGAHDNLKLTITQEGNKFTVKESSNFRNIDVVFELGVDNAYSAADGTELTGTWTMEGNKLVGKFKRVDNGKELIAVREISGNELIQTYTYEGVEAKRIFKKE	0.67	0.60	0.67	0.63	0.35	
68L, 72A (protein, listed as Rattus norvegicus, PEPTIDE (1)...(131) wild-type rat intestinal fatty acid binding protein) AFDGTWKVDRNENYEKFMEKMGINVVKRKLGAHDNLKLTITQEGNKFTVKESSNFRNIDVVFELGVDLAYSAADGTELTGTWTMEGNKLVGKFKRVDNGKELIAVREISGNELIQTYTYEGVEAKRIFKKE	0.66	0.52	0.53	0.55 and 0.547	0.52 and 0.524	0.658
68I, 72A (protein, listed as Rattus norvegicus, PEPTIDE (1)...(131) wild-type rat intestinal fatty acid binding protein) AFDGTWKVDRNENYEKFMEKMGINVVKRKLGAHDNLKLTITQEGNKFTVKESSNFRNIDVVFELGVDIAYSAADGTELTGTWTMEGNKLVGKFKRVDNGKELIAVREISGNELIQTYTYEGVEAKRIFKKE	0.42	0.36	0.37	0.39	0.35	
62N, 72A (protein, listed as Rattus norvegicus, PEPTIDE (1)...(131) wild-type rat intestinal fatty acid binding protein) AFDGTWKVDRNENYEKFMEKMGINVVKRKLGAHDNLKLTITQEGNKFTVKESSNFRNIDVVNELGVDFAYSAADGTELTGTWTMEGNKLVGKFKRVDNGKELIAVREISGNELIQTYTYEGVEAKRIFKKE	1.40	1.40	1.34	1.37	1.29	
68M, 72A (protein, listed as Rattus norvegicus, PEPTIDE (1)...(131) wild-type rat intestinal fatty acid binding protein) AFDGTWKVDRNENYEKFMEKMGINVVKRKLGAHDNLKLTITQEGNKFTVKESSNFRNIDVVFELGVDMAYSAADGTELTGTWTMEGNKLVGKFKRVDNGKELIAVREISGNELIQTYTYEGVEAKRIFKKE	0.52	0.35	0.34	0.35	0.33	
68G, 72A (protein, listed as Rattus norvegicus, PEPTIDE (1)...(131) wild-type rat intestinal fatty acid binding protein) AFDGTWKVDRNENYEKFMEKMGINVVKRKLGAHDNLKLTITQEGNKFTVKESSNFRNIDVVFELGVDGAYSAADGTELTGTWTMEGNKLVGKFKRVDNGKELIAVREISGNELIQTYTYEGVEAKRIFKKE	0.24	0.18	0.17	0.21	0.12	
62T, 72A (protein, listed as Rattus norvegicus, PEPTIDE (1)...(131) wild-type rat intestinal fatty acid binding protein) AFDGTWKVDRNENYEKFMEKMGINVVKRKLGAHDNLKLTITQEGNKFTVKESSNFRNIDVVTELGVDFAYSAADGTELTGTWTMEGNKLVGKFKRVDNGKELIAVREISGNELIQTYTYEGVEAKRIFKKE	0.99	0.96	1.02	1.00	0.65	
